From the DeepSol protein solubility set

Test: soluble on expression in E. coli; label from the status in PepcDB or PDB records

Sequence | soluble on expression in E. coli
MSQSKGKKRNPGLKIPKEAFEQPQTSSTPPRDLDSKACISIGNQNFEVKADDLEPIMELGRGAYGVVEKMRHVPSGQIMAVKRIRATVNSQEQKRLLMDLDISMRTVDCPFTVTFYGALFREGDVWICMELMDTSLDKFYKQVIDKGQTIPEDILGKIAVSIVKALEHLHSKLSVIHRDVKPSNVLINALGQVKMCDFGISGYLVDSVAKTIDAGCKPYMAPERINPELNQKGYSVKSDIWSLGITMIELAILRFPYDSWGTPFQQLKQVVEEPSPQLPADKFSAEFVDFTSQCLKKNSKERPTYPELMQHPFFTLHESKGTDVASFVKLILGDLEHHHHHH | soluble
MSQVQSGILPEHCRAAIWIEANVKGEVDALRAASKTFADKLATFEAKFPDAHLGAVVAFGNNTWRALSGGVGAEELKDFPGYGKGLAPTTQFDVLIHILSLRHDVNFSVAQAAMEAFGDCIEVKEEIHGFRWVEERDLSGFVDGTENPAGEETRREVAVIKDGVDAGGSYVFVQRWEHNLKQLNRMSVHDQEMVIGRTKEANEEIDGDERPETSHLTRVDLKEDGKGLKIVRQSLPYGTASGTHGLYFCAYCARLHNIEQQLLSMFGDTDGKRDAMLRFTKPVTGGYYFAPSLDKLMAL | soluble
MSRDRPNKIKLPHRPGYTTYLQTGDLTSTDGEEGVYSLKLITGYTREEPEILDDVLDPSGGSSSSQRSNDPLLPASTNHPEIFDDVLDPSGGSSSSQRSNDPLLPASTFKLSCVDCKKQYNVSKSMKSQARKRKIRQDMEAEDDMLDGTGLHRMALVNVNTTMPQEAKALEELSKKLVISATLTGYDSVPINTPSKSPQVLYFQVKTHAEFDLVQEKMDKNFISQLEIESLVKSNEPFLFPYGRRRHVFTSILLATYLSLCSDEANNIDDWKDLLRNNAIIKKAVEHSDTMQKMKKYLSVDGRTMLNFYKETL | not soluble
MSREDELLEKLDECENATAFLQVSNKIINLKLKALLPSVFVQDDLVKEYAVDPLLREDGPLVTTDVVSKLMFAMGKISLQTYADIGLYDQVLEYVVTQPEKIAFTDDVIYDFIKNQAVLSSQQDCFYLESINQLKFSSFESFSQMRYESLIKTVLKLSCEMLIERIEEEINQ | soluble
MSRFSITYKHDFYGGVEGEVTGGSALLCCPQEDIKSFLSEPVYSRLCASAWALTIECPSDPRTPSGTPGPLGTVPWRWGSLGMGGPLLPTAPTPRERERRGGQPAQRWSAEEGQEGSADGEAEATQELILAVVQEGAEGQCQGQGRKLLLQRGAHDPVTVHRAFKKEVGLGQVQLIPKGGTGVLHPGAGLKLHTHLQLVTGFVVIRRMHACLAQRYCSQPVVQCVFPS | not soluble
MSRGLLEACIEFIRETPAGDALRIVAYEFTFKRILLELKAALERGVDVRIVYHATTANEKAIADAKLPENSKGVQILFKRTRPQTPHNKFIVRLKKGKTPVSVWTGSTNFTPSGFLGQTNVGHKVTDGDIAKIYLQLWEGLKADPDDFDATQLEHHHHHH | not soluble
MSRGQIIHSGHFMCSNPHDDLVQDEDEEDVEVDVVEDDDKSMEASSSVHHKNKALDEKPVTFYKFGVGKTQSIAIDVSLNKLNKCIKVAYNKMTTPKWKDFKGLRLHWKQRVRLNNVIWRAYYIEFRKKQPEKPKKPFCYFAVPDDDTTHQKIEGSIVEGMYWKRKMEGVCAQYKRWRIRSKHNLVTDKGGMVATCSSTSVSSMTGELKRKRKHTVPKETIESKLRSYEPPVKLQRSQTPKHTISDEFAWDFDDLDNVFTDDFLNSLSEPYMFPDPRDVYSGNNADIMQPGLLPLQPTIEDIMMSLGDDMPDSPPFHNDRDTMRTPTNDQPSISAQQIPQMRRSASSSASLHQMQVAQAQAQSISQISQPSQQLQHQIQIQQPVAARPHEFMASSIMMDYRLMPTRQSSAITSQMLMLSQSASTLSSQPQYATSTHYSTNNSFLPIRNTMTNQHHLGHTSQHSPWNKQQQSNFLVSLPHQSHVERILNNQPPLVPPPSRSNLLPTQNDPYLPQFLQSTQPTPQPQSHDPMMAPSRSWWLDSPLTASVQSPLSVATPLPLANQTGPQTPLGQLIGSADNGFLFGGNNTPGGFKMSGTTSGVPTLSQRLEQPPISRTSTIFGNVENKPERIFTSLTSQNTPTPSPLDISSLSRLRTSSLNESWKMSHIVEGSPTYQAFAASVTTKPSILESPSTSGDISGPASVPVQASQHPPKIITPPSASSKRKEQEAAMAPLVNRQQSCDVNLLNGKMAVKVEEKSGRHYLPTTPTELKEVTKEEPLLMSAPSSVKSMRRQAPDSTLHPEERKRILHLHAEQNRRSALKDGFDQLMDIIPDLYSGGVKPTNAVVLAKSADHIRRLQAEKWDKTQKIDEAKAKIEKLNQKITSLQSNLPQSSAPSSSSQVDSKTSLETFFDRYVKEGAKKNWRFWVVSYLAEKLKFF | not soluble
MSRHLTFHIITNVPYSNLNRDDSGTPKRVSLGGALRALHSSQSIKRGIRTKYELASLDTSIRSGKLVEEVVRVGLDLKPEVDEKLLRKGAAKIIGSLTKGESSEGESARSAWMSREEITTAAQTVIDGQEDSDFIQDNRTGSLAIAAFGRMFANAPKKNTEAALAVSPGVTTHAVTIETDYFSTVDDVREREHDSGATFLGVARYVNGTFYRTVSIDKEQLRESWSGFGQEESVDNLRELIKAIVYGAPRGKENSTAPYTLPSLVFAEEQHYRTAYSFETPVLVGKDGGFEFPTICELDRQFARARSFDKGNFGPLEVVSGTAVLEDEQFEGVQRSDLNGLIEAVVNWVTND | not soluble
MSRLRIYTESGELIKDITDPKEIAEELQKINVLFERWRANAPLKENASDEEIINAYKHEIDRLINKYGFQSYDVIAMTPEHPKKDELRQKFLKEHTHSDFEVRYFVYGDGVFYLHPNDKVYILHCTAGDLISVPPNTKHWFDMGENPNFKCIRLFTTPEGWVAEYTGSDIAEKFPKYEEVVNGLEHHHHHH | soluble
MSRNDSLISIIVPVYNVEQYLSRCVDSLVNQTYHNIEIILVDDGSPDRSGEICDEYAKKDKRVKVIHQSNGGLSDARNTALDIAKGDYLMFVDSDDWIEKKTCEILNRLASDYKADTVIFGLNFVFDSGKVIRSKRGMAGLTDKNMCMKYLIHNVARGGIFNYACNKMFSSHLFEGLRFPVGRLAEDQDVIYKLIHRSQRIYVTEQPLYNYYQRDGSITAAQYYPRLIRDRHELWLKRLDFIREYYPDLENYQIAQILGAAYVGIVKLEGNKQNGELKKKLICFSNKYILKEKELSVLDRKIKLHYYCYPLFWLYVKLFIK | not soluble
MSRPDQAKVTVAKGDIKAIAAALDMYKLDNFAYPSTQQGLEALVKKPTGNPQPKNWNKDGYLKKLPVDPWGNPYQYLAPGTKGPFDLYSLGADGKEGGSDNDADIGNWDN | soluble
MSRRRKANPTKLSENAKKLAKEVENSQEENDCDMLAKPQTPTIIIPGHMDDTPNPAGSPHDASIKSSSSTISDHTSTSATTGISDFPDILAQTEHGCSVLIDGNHLREIINSVDTQDGKQDLLSDVIRQLTSIKERLTNDESPVKDDLKEDPDDMSPMLHAGNFDSEMLLRQHELMQHQQQQMIIANMLKATQSLPLLFNGGLNYEAILNNPVLNATIAGHLPNPLASNISLLQKSISAKLAAAGNMQTVEKVETPLNLSKDTPSPTAIPQSPLSGFRLPYSLGTNYGSDGQLFNNCSPNSSGKSTPGNTSVTSEVATPRPQAKSPNHIKRPMNAFMVWARDERRKILKAYPDMHNSNISKILGSRWKGMSNSEKQPYYEEQSRLSKLHMEQHPDYRYRPRPKRTCVIDGKKVRVNEYKTIMKTKKDLMWGDEPGFSQPSDLQMDLASHVNLLNDLTQHHHQSHLLQTAE | not soluble
MSRSSLVDPSFELSDPCPDIHALFIQFDARFFGGSLACCEVKWSPRMYACAGICSYEIRGGRGGLCSIRLSKPLLTLRPRSDLVETLLHEMIHAYLFVKERNRDRDGHGPQFQAHMHRINQAGGTNITIYHSFHDEVRLYKQHWWRCSGPCRDRRPFFGYVKRSCNRAPGPNDRWWSQHQQSCGGNFLKVKEPEGYGQGKGSKRTNDKNKSGGPALKKTITPPRVTLDDFFKKDGKNSSDNSTSKSPTKPSTSLFTGSGQKLGGSSSTSSLLNSYPKATQNSGGNRLGGTSGGVSRLLPPVNFTSPSSAPVAEQVIDLGDSDDDDFQDMDDDALEISFVASDNSVICPSCNTEVMENLIHGHLDYCLG | not soluble
MSRTAVREAVKTLTAKGMVLPRPRIGTRVMPQSNWNFLDQELLTWWITEENFHQVIDHFLVMRICLEPQACLLAATVGTAEQKAHLNTLMAEMAALKENFRRERWIEVDMAWHEHIYEMSANPFLTSFASLFHSVYHTYFTSITSDTVIKLDLHQAIVDAIIQSDGDAAFKACQALLRSPDK | not soluble
MSRTILQPGQIEAAANIPPHLHQPSRDLFARRGERLLQLAEGHPMGDYLRLVAGLCRLQQALLDNPPALAPLDPERLRKSREHGMPPLAYDLLVREGAWLPWLDALLAGYPAPANAAVGAALEQLREAEEGQRKAWAIALLSGQFDLLPAALVPFLGAALQVAWSHWLLGLEEGAVVETESRTLCPACGSPPMAGMIRQGGKETGLRYLSCSLCACEWHYVRIKCSHCEESKHLAYLSLEHDGQPAEKAVLRAETCPSCQGYLKQFYLEFDRHADALADDLASLALDMRLAEDGYLRRSPNLLLAPGGE | soluble
MSRVPYGYEIIQLLEQLAPKQLAMEGDRIGLQIGTLNKPVKKVMIALDVLEDVVVEAIDQQVDLIIAHHPPLYRPLKQLLTDDGHGRMIAACIKHDIAVYAAHTNLDVADGGLNDWLAEALGLNDTAVLVPTYTEPLKKLVVYVPVTHAEVVRKALGDAGAGHIGRYSHCTFNSRGVGTFLPHEGARPFIGEQGRLEEVEEVRIETIVPASLEREAIQAMLAVHPYEEVAYDIYPLDNEGRRFGLGRIGRLPQPVTLGAFAEQVKTAFSVPAVRVVGRLDDLVQTVAVLGGDGNKFVAAAASAGADVYVTGDVYYHTAHDAQALGLHIIDPGHNVEKIMKEGVARYLITELSKRQWEAEVVASSVHTDPFQFV | not soluble
MSRVRTKTVKKASRVLIEKYYTRMTNDFHNNKRVCDEVAIIGSKPLRNKIAGYITHLMRRIERGPVRGISIKLQEEERERRDNYMPEISTVDPSQLTSIKVDTDTSDMLKAAGFNLPNVTVEDQGKNKGK | not soluble
MSRYGRYGGETKVYVGNLGTGAGKGELERAFSYYGPLRTVWIARNPPGFAFVEFEDPRDAEDAVRGLDGKVICGSRVRVELSTGMPRRSRFDRPPARRPFDPNDRCYECGEKGHYAYDCHRYSRRRRSRSRSRSHSRSRGRRYSRSRSRSRGRRSRSASPRRSRSISLRRSRSASLRRSRSGSIKGSRYFQSPSRSRSRSRSISRPRSSRSKSRSPSPKRSRSPSGSPRRSASPERMD | not soluble
MSSAAADESDAVLENLIAKEILPQTGNWEGTEEFLNRIVQVLLKYIKDQNDRDQKILEFHHPDKMQMLMDLSIPEKPESLLKLVKSCEDVLRLGVRTGHPRFFNQISCGLDLVSMAGEWLTATANTNMFTYEIAPVFILMEKSVMARMWEAVGWDPEKADGIFAPGGAIANLYAMNAARHQLWPRSKHLGMKDIPTLCCFTSEDSHYSIKSASAVLGIGADYCFNIPTDKNGKMIPEALEAKIIECKKEGLTPFFACCTAGSTVYGAFDPLERVANICERHKLWFHVDAAWGGGMLLSPEHRYKLAGIERANSVTWNPHKLMGALLQCSACLFRQDGLLFQCNQMSADYLFQQDKPYDVSFDTGDKAIQCGRHNDVFKLWLMWKSKGMEGYRQQINKLMDLANYFTRRIKETEGFELIIENPEFLNICFWYVPSKIRNLEPAEMRARLEKIAPKIKAGMMQRGTTMVGYQPDKQRPNFFRMIISNQAITREDLDFLIKEIVDIGESLE | not soluble
